The record followed here is patent publication US20150064179A1 (BIOTEST, published 2015).

The target of assay [1] is T1, recombinant Cynomolgus IL-10 (Cynomolgus, UniProt P79338 19-178).
T1 construct: also called rCIL-10
The experiment in a line: SPR Biacore T100, BT-063 immobilised by amine coupling, rCIL-10 as analyte, assay no 1. As for the experimental part: (§1) The affinity of the BT-63 variant 3 (hVH26/hVL7) to Cynomolgus IL-10 was analysed by additional surface plasmon resonance experiments using a Biacore T100 (Biacore AB, Uppsala, Sweden).
(§2) BT-063 was diluted in 10 mM acetate pH5.5 to 5 μg/mL and immobilized using amine coupling procedure to obtain a final level of about 1000 RU. Regeneration of the sensor chip surface was obtained injecting 10 mM Glycine-HCl pH 1.8 for 30 s. Samples were injected in different concentrations over the flow cell as well as over the reference cell. Signals obtained by the reference cell were subtracted from the signals obtained by the detector flow cell and resulting binding profiles were evaluated using a 1:1 Langmuir-binding model.

The target of assay [2] is T2, human interleukin 10 (R&D Systems, Cat. No. 217-IL/CF) (human, UniProt P22301 19-178).
T2 construct: also called hIL-10; human IL-10
The experiment in a line: SPR Biacore T100, BT-063 immobilised by amine coupling, rhIL-10 as analyte, assay no 1. In general terms: In SPR one partner is held on a chip, and binding of the other changes the refractive index at the surface.

Assay [3] addresses T2, human interleukin 10 (R&D Systems, Cat. …). The experiment in a line: SPR Biacore 2000, hIL-10 immobilised on CM-5 chip, antibody as analyte, n=5. The protocol:
(§3) Surface plasmon resonance analysis was used to measure the association and dissociation rate constants for binding of the different antibodies (murine, chimeric, 3 humanized variants) towards hIL-10 using BIACORE 2000 (Biacore AB, Uppsala, Sweden). hIL-10 was immobilized on a CM-5 sensor chip according to manufacturers conditions. hIL-10 was immobilized by adding a 50 μl aliquot of 20 μg/ml at a flow rate of 5 μl/minute resulting in an immobilization density of 320RU. The immobilized hIL-10 surface was regenerated in a two step cycle by using 0.1M carbonate buffer pH 9.2 and 0.01M HCL/1M NaCl at flow rates of 50 μl/minute for one minute each. Each antibody sample was analyzed at least 4 times in antibody concentration ranges of 20-0.15 μg/ml. Calculations from the sensograms were performed by using the BIA evaluation version 3 (1999) software.

Assay [4] concerns the target T1, recombinant Cynomolgus IL-10. The assay is described as follows: SPR Biacore T100, BT-063 immobilised by amine coupling, IL-10 as analyte, 1:1 Langmuir model, average. As for the experimental part:
as §1, §2

Assay [5] deals with T2, human interleukin 10 (R&D Systems, Cat. …). The experiment in a line: SPR Biacore 2000, hIL-10 immobilised on CM-5 chip. The protocol: as §3
However, slight differences are detectable. […] Slight differences in association and dissociation rates are also detectable.

Assay [6] addresses T1, recombinant Cynomolgus IL-10. The assay is described as follows: SPR Biacore T100, BT-063 immobilised by amine coupling, rCIL-10 as analyte, assay no 3. The protocol:
as §1, §2

Assay [7] has the same target. The experiment in a line: SPR Biacore T100, BT-063 immobilised by amine coupling, rCIL-10 as analyte, assay no 2. As for the experimental part: as §1, §2

T2 sequence (P22301 19-178): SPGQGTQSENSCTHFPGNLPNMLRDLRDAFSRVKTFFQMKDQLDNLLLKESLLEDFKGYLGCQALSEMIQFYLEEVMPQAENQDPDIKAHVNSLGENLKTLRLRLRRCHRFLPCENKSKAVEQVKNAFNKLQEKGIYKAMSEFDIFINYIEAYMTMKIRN
T1 sequence (P79338 19-178 limits assumed): as the sequence (P22301 19-178) above, with H14R, N21H, L46I, Q83H, A89E, N129S, I136V counted along it

B1: BT-063-3 (hVH26/hVL7) (antibody, V domains shown)
VH: EVQLVESGGGLVQPGGSLRLSCAASGFSFATYGVHWVRQSPGKGLEWLGVIWRGGSTDYSAAFMSRLTISKDNSKNTVYLQMNSLRAEDTAVYFCAKQAYGHYMDYWGQGTSVTVSS
VL: DVVMTQSPLSLPVTLGQPASISCRSSQNIVHSNGNTYLEWYLQRPGQSPRLLIYKVSNRFSGVPDRFSGSGSGTDFTLKISRVEAEDVGVYYCFQGSHVPWTFGQGTKVEIK
notes: also called BT-63 variant 3; BT-063 (variant hVH26/hVL7)
As to B1, the Kd (usually the constant that tells how readily two partners part at equilibrium) is 0.196 nM in assay [1]; 4.6 nM in assay [2]; 2.91 nM in assay [3]; 0.194 nM in assay [4]; 0.191 nM in assay [6]; 0.195 nM in assay [7]. The dissociation rate constant (koff) (commonly a measure of how fast the partners let go of each other) in assay [1] worked out at 0.012 s⁻¹; in assay [2], 0.003 s⁻¹; in assay [3] it was 0.00266 s⁻¹; in assay [6], 0.018 s⁻¹; in assay [7], 0.017 s⁻¹. The kon (in general, a measure of how fast the partners come together) was 6.2e+07 M⁻¹ s⁻¹ in assay [1]; 600000 M⁻¹ s⁻¹ in assay [2]; 1.07e+06 M⁻¹ s⁻¹ in assay [3]; 9.7e+07 M⁻¹ s⁻¹ in assay [6]; 8.6e+07 M⁻¹ s⁻¹ in assay [7]. Further, the “factor of reduced affinity compared to the murine B-N10” value in assay [5] was roughly 3 fold.
